Earlier results on 1 substance are cited in article PMC7662479.

For the series, the target named is Angiopoietin-2 (Homo sapiens) (UniProt O15123).
UniProt O15123, sequence (O15123 19-496): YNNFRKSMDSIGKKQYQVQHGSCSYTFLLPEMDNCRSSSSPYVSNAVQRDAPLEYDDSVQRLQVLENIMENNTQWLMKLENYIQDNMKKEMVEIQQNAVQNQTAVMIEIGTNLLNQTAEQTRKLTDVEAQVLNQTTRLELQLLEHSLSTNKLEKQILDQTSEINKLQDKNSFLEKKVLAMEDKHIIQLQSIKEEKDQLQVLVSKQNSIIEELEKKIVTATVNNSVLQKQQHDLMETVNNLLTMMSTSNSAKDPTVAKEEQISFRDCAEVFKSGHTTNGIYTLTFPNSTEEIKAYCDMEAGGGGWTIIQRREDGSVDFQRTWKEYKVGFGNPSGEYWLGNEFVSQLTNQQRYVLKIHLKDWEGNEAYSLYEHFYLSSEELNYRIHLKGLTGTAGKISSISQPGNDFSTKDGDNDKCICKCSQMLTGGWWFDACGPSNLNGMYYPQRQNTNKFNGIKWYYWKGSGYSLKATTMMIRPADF

As usually defined, the Kd is the equilibrium constant for the complex coming apart. With nesvacumab, the Kd was 0.024 nM.
